Measurements taken from patent publication US20220033505A1 (Janssen / Centocor, published 2022).

B1: HC3B258 (CD3B376-Fab-Fc x MHGB732-LH-scFv-Fc) (bispecific antibody, human IgG1, lambda, L234A L235A)
heavy: QVQLQQSGPRLVRPSQTLSLTCAISGDSVFNNNAAWSWIRQSPSRGLEWLGRTYYRSKWLYDYAVSVKSRITVNPDTSRNQFTLQLNSVTPEDTALYYCARGYSSSFDYWGQGTLVTVSSASTKGPSVFPLAPSSKSTSGGTAALGCLVKDYFPEPVTVSWNSGALTSGVHTFPAVLQSSGLYSLSSVVTVPSSSLGTQTYICNVNHKPSNTKVDKKVEPKSCDKTHTCPPCPAPEAAGGPSVFLFPPKPKDTLMISRTPEVTCVVVSVSHEDPEVKFNWYVDGVEVHNAKTKPREEQYNSTYRVVSVLTVLHQDWLNGKEYKCKVSNKALPAPIEKTISKAKGQPREPQVYVYPPSREEMTKNQVSLTCLVKGFYPSDIAVEWESNGQPENNYKTTPPVLDSDGSFALVSKLTVDKSRWQQGNVFSCSVMHEALHNHYTQKSLSLSPGK
light: QSALTQPASVSGSPGQSITISCTGTSSNIGTYKFVSWYQQHPDKAPKVLLYEVSKRPSGVSSRFSGSKSGNTASLTISGLQAEDQADYHCVSYAGSGTLLFGGGTKLTVLGQPKAAPSVTLFPPSSEELQANKATLVCLISDFYPGAVTVAWKADSSPVKAGVETTTPSKQSNNKYAASSYLSLTPEQWKSHRSYSCQVTHEGSTVEKTVAPTECS
scFv: DIVMTQSPDSLAVSLGERATINCKSSQSVLHSSNNKNYLTWFQQKPGQPPKLLIYWASTRESGVPDRFSGSGSGTDFTLTISSLQAEDVAVYYCHQYYSTPPTFGQGTKVEIKGGSEGKSSGSGSESKSTGGSQVQLQQSGPGLVKPSQTLSLTCAISGDSVSSNSAAWNWIRQSPSRGLEWLGRTYYRSKWYNDYAVSVKSRITINPDTSKNQISLQLNSVTPEDTAVYYCAGDRRYGIVGLPFAYWGQGTLVTVSSEPKSSDKTHTCPPCPAPEAAGGPSVFLFPPKPKDTLMISRTPEVTCVVVSVSHEDPEVKFNWYVDGVEVHNAKTKPREEQYNSTYRVVSVLTVLHQDWLNGKEYKCKVSNKALPAPIEKTISKAKGQPREPQVYVLPPSREEMTKNQVSLLCLVKGFYPSDIAVEWESNGQPENNYLTWPPVLDSDGSFFLYSKLTVDKSRWQQGNVFSCSVMHEALHNHYTQKSLSLSPGK
B2: MHGB672 (antibody, human IgG1, kappa, V domains shown)
VH: QVQLQQSGPGLVKPSQTLSLTCAISGDSVSSNRAAWNWIRQTPSRGLEWLGRTYYRSEWYNDYAVSVKSRITINPDTSKNQFSLQLNSVTPEDTAVYYCARVRAAVPFDYWGQGTLVTVSS
VL: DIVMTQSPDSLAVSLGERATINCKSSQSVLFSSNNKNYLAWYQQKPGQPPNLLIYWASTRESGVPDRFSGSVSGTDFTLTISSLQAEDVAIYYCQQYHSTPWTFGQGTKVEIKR
notes: IgG1 mAb
B3: MHGB738 (GL optimized B688) (antibody, human IgG1, kappa, V domains shown)
VH: QVQLQQSGPGLVKPSQTLSLTCAISGDSVSSNRAAWNWIRQSPSRGLEWLGRTYYRSKWYNDYAVSVKSRITINPDTSKNQISLQLNSVTPEDTAVYYCARVRPGIPFDYWGQGTPVTVSS
VL: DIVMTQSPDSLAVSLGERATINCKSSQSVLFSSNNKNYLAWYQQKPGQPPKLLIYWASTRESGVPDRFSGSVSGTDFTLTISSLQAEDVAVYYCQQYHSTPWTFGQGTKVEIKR
notes: IgG1 mAb
B4: MHGB694 (antibody, human IgG1, kappa, V domains shown)
VH: EVQLLESGGGLVQPGGSLRLSCAASGFTFSSYAMHWVRQAPGKGLDWVSGISGSGFSTYYVDSVKGRFTISRDNSKHTLYLQMNSLRAEDTAVYYCAKDNLVAGTVFDYWGQGTLVTVSS
VL: not shown
notes: IgG1 mAb
B5: MHGB669 (antibody, human IgG1, kappa, V domains shown)
VH: QVQLQQSGPGLVRPSQTLSVTCAISGDSVSSNSASWNWIRQSPSRGLEWLGRTYYRSEWFNDYAVSVKSRVTINPDTSKNQLSLQLNSVIPEDTAVYYCAREARIGVAGKGFDYWGQGTLVTVSS
VL: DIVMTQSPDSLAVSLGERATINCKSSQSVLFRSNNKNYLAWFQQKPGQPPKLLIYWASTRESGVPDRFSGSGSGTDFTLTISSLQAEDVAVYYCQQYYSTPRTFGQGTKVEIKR
notes: IgG1 mAb
B6: MHGB688 (antibody, human IgG1, kappa, V domains shown)
VH: EVQLLESGPGLVKPSQTLSLTCVISGDSVSSNRAAWNWIRQSPSRGLEWLGRTYYRSKWYNDYAVSVKSRITINSDTSKNQISLQLNSVTPEDTAVYYCARVRPGIPFDYWGQGTPVTVSS
VL: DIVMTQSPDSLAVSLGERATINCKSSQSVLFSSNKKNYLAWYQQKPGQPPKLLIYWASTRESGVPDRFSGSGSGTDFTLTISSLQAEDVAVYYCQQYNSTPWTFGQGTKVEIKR
notes: IgG1 mAb

Assays:
[1] = biological target: T1, CD3 on human T cells (Jurkat cells, primary human T cells) (human, UniProt P07766 23-207); test: T cell binding (method not described)
T1 construct: whole, on cells; also called CD3 epsilon; T cell receptor complex
T1 sequence (P07766 23-207): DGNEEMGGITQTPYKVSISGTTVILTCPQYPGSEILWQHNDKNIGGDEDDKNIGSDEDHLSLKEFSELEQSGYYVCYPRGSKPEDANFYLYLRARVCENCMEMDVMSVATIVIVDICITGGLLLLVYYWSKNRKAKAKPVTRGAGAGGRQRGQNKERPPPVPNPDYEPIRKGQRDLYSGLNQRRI

[2] = biological target: T2, HLA-G1 on K562 cells (K562-HLA-G) (human); test: K562-HLA-G cell binding (method not described)
T2 construct: also called cells expressing HLA-G

[3] = biological target: T3, MHGW8 (B2m-3(G4S)-HLA-G1-G4S-Avi), soluble HLA-G1 extracellular domain (human, biotinylated (Avi tag) in the ligand blocking assay); test: competition, flow cytometry: antibody titrated against MHGW8-dextramer binding to ILT2 on HEK293T cells (competitor ILT2)
T3 construct: also called HLA-G (MHGW8); recombinant biotinylated HLA-G1 (MHGW8)

[4] = biological target: T3, MHGW8 (B2m-3(G4S)-HLA-G1-G4S-Avi), …; test: competition, flow cytometry: antibody titrated against MHGW8-dextramer binding to ILT4 on HEK293T cells (competitor ILT4)
[5] = biological target: T2, HLA-G1 on K562 cells (K562-HLA-G); test: flow cytometry; IgG1 mAb on cells expressing HLA-G

| Binder | EC50 [1] | EC50 [2] | EC50 [3] | EC50 [4] | Geomean fluorescence signal (maximum value for binding) [5] |
| --- | --- | --- | --- | --- | --- |
| B1 | 60 nM | 11 nM |  |  |  |
| B2 |  |  | 2.12 nM | 1.61 nM | 522000 |
| B3 |  |  | 0.73 nM | 0.8 nM |  |
| B4 |  |  | 0.64 nM | 0.2 nM | 473000 |
| B5 |  |  | 1.7 nM | 1.59 nM | 616000 |
| B6 |  |  | 1.72 nM | 1.42 nM | 482000 |
